The test deals with C-Intein_C-Cas9_v1 (Nostoc punctiforme | Streptococcus pyogenes) (UniProt Q99ZW2).

“N-Cas9_N-Intein_v1 (from UniProt Q99ZW2 1-573)” yielded a percentage of indels at the endogenous Fus locus in Neuro-2a cells (T7 endonuclease I assay) after transfection of both moieties; wild-type SpCas9 gave 23.1% of 22.7%.
